Source: patent US20250250335A1 (SHENGHE CHINA BIOPHARMACEUTICAL, published 2025)
Read-outs that look alike come from different tables or passages of the source.

T1: mouse CEACAM5 (mouse, UniProt Q3UKK2 35-947, limits assumed)
T1 sequence (looked up): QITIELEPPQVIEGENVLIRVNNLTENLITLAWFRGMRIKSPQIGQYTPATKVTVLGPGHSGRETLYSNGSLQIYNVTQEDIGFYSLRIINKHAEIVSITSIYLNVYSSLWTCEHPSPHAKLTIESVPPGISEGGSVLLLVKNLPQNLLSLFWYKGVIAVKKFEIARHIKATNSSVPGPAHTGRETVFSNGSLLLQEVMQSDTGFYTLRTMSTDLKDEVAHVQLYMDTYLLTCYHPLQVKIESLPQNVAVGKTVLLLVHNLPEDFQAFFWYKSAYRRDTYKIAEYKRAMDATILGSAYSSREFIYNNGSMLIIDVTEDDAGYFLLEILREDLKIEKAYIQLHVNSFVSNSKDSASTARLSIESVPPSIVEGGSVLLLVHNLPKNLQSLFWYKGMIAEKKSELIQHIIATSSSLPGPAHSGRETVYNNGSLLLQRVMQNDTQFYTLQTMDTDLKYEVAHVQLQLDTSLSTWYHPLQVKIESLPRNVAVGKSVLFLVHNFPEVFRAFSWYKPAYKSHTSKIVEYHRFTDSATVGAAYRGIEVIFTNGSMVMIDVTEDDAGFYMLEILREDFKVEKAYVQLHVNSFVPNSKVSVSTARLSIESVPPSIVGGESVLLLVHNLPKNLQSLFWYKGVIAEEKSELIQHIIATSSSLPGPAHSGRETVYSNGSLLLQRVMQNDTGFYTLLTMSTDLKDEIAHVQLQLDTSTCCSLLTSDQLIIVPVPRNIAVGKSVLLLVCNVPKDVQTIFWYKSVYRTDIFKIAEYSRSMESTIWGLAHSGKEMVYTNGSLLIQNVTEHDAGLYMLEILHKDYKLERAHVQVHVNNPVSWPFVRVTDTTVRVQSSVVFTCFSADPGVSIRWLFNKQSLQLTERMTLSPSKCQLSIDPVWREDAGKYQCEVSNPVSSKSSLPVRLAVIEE

T2: human CEACAM5-his (ACRO CE5-H5226) (human, UniProt P06731 35-685)
T2 construct: Bought protein; not shown: His tag
T2 sequence (looked up): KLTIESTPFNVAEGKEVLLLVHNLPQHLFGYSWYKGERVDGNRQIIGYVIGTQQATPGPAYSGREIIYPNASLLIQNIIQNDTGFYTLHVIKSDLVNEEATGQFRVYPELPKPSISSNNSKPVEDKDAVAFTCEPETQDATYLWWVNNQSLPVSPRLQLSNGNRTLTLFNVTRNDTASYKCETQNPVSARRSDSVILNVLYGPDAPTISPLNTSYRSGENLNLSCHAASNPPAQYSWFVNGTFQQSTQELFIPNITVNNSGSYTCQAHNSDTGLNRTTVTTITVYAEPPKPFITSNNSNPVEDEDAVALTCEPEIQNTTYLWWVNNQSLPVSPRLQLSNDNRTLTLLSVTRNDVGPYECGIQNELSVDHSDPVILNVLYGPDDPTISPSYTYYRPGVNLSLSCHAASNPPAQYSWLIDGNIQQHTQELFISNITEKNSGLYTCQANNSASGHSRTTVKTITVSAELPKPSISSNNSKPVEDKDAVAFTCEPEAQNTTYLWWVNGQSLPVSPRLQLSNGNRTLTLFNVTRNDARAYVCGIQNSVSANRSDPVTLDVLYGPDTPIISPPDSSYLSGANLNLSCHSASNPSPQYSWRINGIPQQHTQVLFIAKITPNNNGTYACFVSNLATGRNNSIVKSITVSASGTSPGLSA

T3: human CEACAM6-his (ACRO CE6-H5223) (human, UniProt P40199 35-320)
T3 construct: Bought protein; not shown: His tag
T3 sequence (looked up): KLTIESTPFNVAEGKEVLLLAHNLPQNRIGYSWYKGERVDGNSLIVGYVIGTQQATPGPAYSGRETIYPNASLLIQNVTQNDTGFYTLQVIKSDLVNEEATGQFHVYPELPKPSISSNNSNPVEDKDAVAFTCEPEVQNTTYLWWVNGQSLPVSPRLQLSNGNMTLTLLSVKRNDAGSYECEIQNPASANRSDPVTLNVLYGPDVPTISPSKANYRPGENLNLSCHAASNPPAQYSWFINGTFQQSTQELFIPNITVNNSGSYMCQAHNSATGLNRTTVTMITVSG

T4: CEACAM6 on the surface of the tumor cells (HPAFII cells) (UniProt P40199 35-320)
T4 construct: whole, on cells
T4 sequence (looked up): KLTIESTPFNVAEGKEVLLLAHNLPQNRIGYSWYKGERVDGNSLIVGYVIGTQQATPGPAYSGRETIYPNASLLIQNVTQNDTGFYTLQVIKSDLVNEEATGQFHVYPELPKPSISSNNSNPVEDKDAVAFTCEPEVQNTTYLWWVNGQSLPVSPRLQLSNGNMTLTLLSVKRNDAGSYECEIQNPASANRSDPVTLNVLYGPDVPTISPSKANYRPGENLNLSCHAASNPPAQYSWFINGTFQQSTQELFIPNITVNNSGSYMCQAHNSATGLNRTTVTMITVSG

T5: CEACAM5 on the surface of the tumor cells (HPAFII cells) (UniProt P06731 35-685)
T5 construct: whole, on cells
T5 sequence (looked up): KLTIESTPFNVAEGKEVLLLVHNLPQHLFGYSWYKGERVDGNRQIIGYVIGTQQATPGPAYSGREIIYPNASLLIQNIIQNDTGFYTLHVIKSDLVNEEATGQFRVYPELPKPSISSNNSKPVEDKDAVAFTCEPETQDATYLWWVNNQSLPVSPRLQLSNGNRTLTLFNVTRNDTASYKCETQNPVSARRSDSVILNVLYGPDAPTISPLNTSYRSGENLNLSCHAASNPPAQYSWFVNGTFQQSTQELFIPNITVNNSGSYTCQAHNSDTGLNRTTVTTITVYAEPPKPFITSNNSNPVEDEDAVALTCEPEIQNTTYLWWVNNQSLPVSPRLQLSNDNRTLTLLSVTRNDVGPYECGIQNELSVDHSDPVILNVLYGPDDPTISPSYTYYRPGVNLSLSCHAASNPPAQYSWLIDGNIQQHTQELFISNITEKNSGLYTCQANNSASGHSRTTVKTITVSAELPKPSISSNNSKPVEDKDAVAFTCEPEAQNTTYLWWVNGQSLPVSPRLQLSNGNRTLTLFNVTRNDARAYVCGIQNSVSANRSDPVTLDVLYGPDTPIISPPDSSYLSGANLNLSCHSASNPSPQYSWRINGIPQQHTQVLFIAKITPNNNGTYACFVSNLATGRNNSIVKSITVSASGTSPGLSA


Assays:
mouse CEACAM5 = target: T1, mouse CEACAM5; test: ELISA on coated protein, OD450
Protocol: The affinity of the antibodies to monkey CEACAM5, monkey CEACAM6, and mouse CEACAM5 proteins was determined by ELISA. The plates encapsulated with […] proteins were incubated at 4° C. overnight, and the antibodies to be detected were added to 96-well ELISA plates after being blocked with 2% PBS-BSA and incubated at 37° C. for 1 h. After washing 3 times with PBS containing 0.05% Tween, the absorbance value of each well was read at wavelength 450 nm with the antibody to be detected as the primary antibody and Goat anti-mouse IgG-FC-HRP as the secondary antibody, and the absorbance value of each well was read at wavelength 450 nm after the TMB color development. The specific binding to CEACAM5 and CEACAM6 of mouse and monkey was detected by Elisa method.

Human-CEACAM6 (AB)-His [1] = target: T6, Human-CEACAM6 (AB)-His (human, UniProt P40199 145-314); test: ELISA on coated human CEACAM6 (AB), OD450
T6 construct: Made in house, purified on a nickel column
Protocol: (§1) The binding activity of the antibodies to human CEACAM5, human CEACAM6, and human CEACAM6 (AB) proteins was detected by ELISA. The plate coated with proteins was incubated at 4° C. overnight, and the 96-well ELISA plate blocked with 2% PBS-BSA was added with the antibody to be detected and incubated at 37° C. for 1 h. After washing 3 times with PBS containing 0.05% Tween, the absorbance value of each well was read at wavelength 450 nm with the gradient-diluted mouse-derived candidate antibody as the primary antibody and anti-mouse-IgG-FC-HRP as the secondary antibody, and the absorbance value of each well was read at wavelength 450 nm after the TMB color development.

[2] = target: T2, human CEACAM5-his (ACRO CE5-H5226); test: ELISA on coated human CEACAM5, OD450
Protocol: as §1

Human-CEACAM6 (AB)-His [3] = target: T6, Human-CEACAM6 (AB)-His; test: SPR (Biacore), antibody captured on CM5 chip, antigen as analyte, 1:1 model
Protocol: (§2) The CM5 sensor chip was activated at a flow rate of 10 μL/min for 420 seconds. The channel was then injected with 30 μg/mL of anti-rat Fc IgG in 10 mM NaAc (pH 4.5) at a flow rate of 10 μL/min. The chip was inactivated with 1 M ethanolamine-hydrochloric acid (GE) for 420 seconds at a flow rate of 10 μL/min.
(§3) Candidate antibodies in running buffer 1×HBS-EP+ (10 mM HEPES, 150 mM NaCl, 3 mM EDTA, 0.05% Tween 20, pH 7.4) were captured onto Fc2 with anti-rat Fc IgG at a flow rate of 10 μL/min. The 10 nM human CEACAM5-his protein or CEACAM-6-his or CEACAM6 (AB)-his protein and running buffer were sequentially injected into Fc1-Fc2 at a flow rate of […], bound for 180 seconds, and then dissociated for 3600 seconds. 10 mM glycine (pH 1.5) was injected as regeneration buffer after each dissociation.
(§4) Result plots for the reference channel Fc1 and the buffer channel were subtracted from the test result plots. The experimental data fit the 1:1 binding model. The molecular weight of 110 KDa was used to calculate the molar concentration of CEACAM5 protein, 55 KDa for human CEACAM6-his, and 55 KDa for human CEACAM6 (AB)-his.

[4] = target: T2, human CEACAM5-his (ACRO CE5-H5226); test: as above
Protocol: as §2, §3, §4

[5] = target: T3, human CEACAM6-his (ACRO CE6-H5223); test: as above
Protocol: as §2, §3, §4

[6] = target: T4, CEACAM6 on the surface of the tumor …; test: flow cytometry on HPAFII cells (Mean-FITC); the cells carry CEACAM5 and CEACAM6, signal not divided between the two
Protocol: (§5) The antibody to be tested was taken as the initial concentration of 200 nM and diluted 5-fold with 6 gradients. The HPAFII cells (From USTC […] FOR ADVANCED STUDIES) in the incubator were taken out, and the cell suspension was transferred to a 15 mL centrifuge tube, centrifuged, and counted by resuspension in PBS. A blank control group (Blank), a negative control group (NC), an experimental group, a positive control group and the irrelevant antibody group were kept. […] The cell suspension was spread in a 96-well plate according to about 3×10⁵ cells/well. Centrifugation (1000 rpm, 5 min) was performed, followed by washing with PBS, re-centrifugation, and repeated twice to remove media residues. The supernatant was discarded, 100 μL of primary antibody solution and irrelevant antibody solution were added to the experimental group and irrelevant antibody group, respectively, and the cells were resuspended and incubated at room temperature for 1 h. The blank group, and the negative control group were incubated with an equal amount of PBS.
(§6) After 1 h, PBS was added to wash twice. After the supernatant was discarded, 100 μL of fluorescent secondary antibody dilution (Mouse-derived secondary antibody from Abcam ab6785) was added to each sample group, except for the blank group which was added with 100 μL of PBS. After incubation at room temperature and protected from light for 0.5 h, centrifugation was performed and PBS added to wash the samples twice. After the supernatant was discarded, 120 μL of PBS was added to resuspend and sequentially flow cytometry was performed to detect the mean fluorescence intensity. The concentration of the antibody was logarithmically taken as the horizontal coordinate, and the Sigmoidaldose-response (VariableSlope) method (GraphPadPrism Software, GraphPadSoftware, San Diego, California) was chosen to perform a nonlinear regression to obtain the binding activity curves of the antibody on HPAFII cells.

[7] = target: T5, CEACAM5 on the surface of the tumor …; test: as above
Protocol: as §5, §6

[8] = target: T2, human CEACAM5-his (ACRO CE5-H5226); test: ELISA on coated human CEACAM5, OD450; remark: listed apart in the source
Protocol: as §1

T6 sequence (P40199 other isoform, or with tags, fused parts or gaps limits assumed): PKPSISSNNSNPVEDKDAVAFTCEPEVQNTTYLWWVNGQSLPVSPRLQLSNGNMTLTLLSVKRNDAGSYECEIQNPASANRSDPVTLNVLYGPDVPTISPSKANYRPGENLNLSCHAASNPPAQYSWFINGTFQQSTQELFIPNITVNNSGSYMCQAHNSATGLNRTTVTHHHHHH

Binder | OD (mouse CEACAM5) | EC50 (read off the curve) (Human-CEACAM6 (AB)-His [1]) | EC50 (read off the curve) [2] | Kd (Human-CEACAM6 (AB)-His [3]) | Kd [4] | Kd [5] | EC50 (read off the curve) [6] | EC50 (read off the curve) [7] | EC50 (read off the curve) [8]
Antibody 13 (antibody, V domains shown, Mouse-derived hybridoma antibody; also called mouse-derived antibody 13) VH: EVKLVESGGGLVQPGGSLSLSCTASGFTLTDYYMSWVRQPPGRALEWLALIRNKVNGYTIEYSASVKGRFTISRDNSQSILYLQMNALRAEDSATYYCARDIGIRWYFDVWGAGTTVTVSS VL: QIVLSQSPAILSASPGEKVTMTCRASSSVSYMHWYQQKPGSSPKPWIYATSNLASGVPARFSGSGSGTSYSLTISRMEAEDAATYYCQQWSGNPPTFGGGTKLEIK | 0.15 OD | ~0.02 µg/mL | ~0.03 µg/mL | 4.51 nM | 1.36 nM | 37.4 nM | – | – | –
Antibody 7 (antibody, V domains shown, Mouse-derived hybridoma antibody; also called mouse-derived antibody 7) VH: QIQLVQSGPELKKPGETVKISCKASGYTFTDYGMNWVKQAPGKGLKWMGWINTYTGEPTYPDDFKGRFAFSLETSATTAYLQINNLKNEDTATYFCSRGDLLVRLDNWGQGTTLTVSS VL: DIQMTQSPSSLSASLGGKVTITCKASQDINKYISWYQHKPGKGPRLLIHYTSTLQSGIPSRFSGSGSGRDYSFSISNLEPEDIATYYCLQYDYLRTFGGGTKLEIK | – | ~0.01 µg/mL | – | – | – | – | ~2 nM | ~2 nM | –
Antibody 8 (antibody, V domains shown, Mouse-derived hybridoma antibody; also called mouse-derived antibody 8) VH: EVQLRQSGPELVRPGASMKISCKASGYSFTAYTMTWVKQSHGKILEWIGLIAPYHGGTVYNQKFKGKATLTVDKSSSTAYMELLSLTSEDSAIYYCAGGASSGFVTWFAYWGQGTLVTVSA VL: DIQMTQSPASLSASVGETVTITCGASENIYGALNWYQRKQGKSPQVLIYGATNLADGTSSRFSGSGSGRQYSLKINSLHPDDVATYYCQNVLSTPYTFGGGTKLEIK | – | ~0.02 µg/mL | – | – | – | – | ~2 nM | ~2 nM | ~0.01 µg/mL
